We go through 34 sequences from the supplement of paper PMC7877785.

The nature of the series: self-splicing fitness, log relative to wild type (ln ratio); higher = more splicing; Tetrahymena group I intron in knt gene, E. coli kanamycin selection, DiMSum; sequences stand for … in CUCUCU…GGAGGGAAAAGUUAUCAGGCAUGCACCUGGUAGCUAGUCUUUAAACCAAUAGAUUGCAUCGGUUUAAAAGGCAAGACCGUCAAAUUGCGGGAAAGGGGUCAACAGCCGUUCAGUACCAAGUCUCAGGGGAAACUUUGAGAUGGCCUUGCAAAGGGUAUGGUAAUAAGCUGACGGACAUGGUCCUAACCACGCAGCCAAGUCCUAAGUCAACAGAUCUUCUGUUGAUAUGGAUGCAGUUCACAGACUAAAUGUCGGUCGGGGAAGAUGUAUUCUUCUCAUAAGAUAUAGUCGGACCUCUCCUUAAUGGGAGCUAGCGGAUGAAGUGAUGCAACACUGGAGCCGCUGGGAACUAAUUUGUAUGCGAAAGUAUAUUGAUUAGUUUUGGAGUACUCGUGGUCG
Put shortly: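 A randomised library covering all eight P1ex-region intron nucleotides was built with the intron in the knt kanamycin-resistance gene on pET-22b(+) and held in E. coli BL21(DE3). Cells were grown overnight at 37°C or 30°C on LB agar, with or without 25 μg/mL kanamycin, plus 100 μg/mL carbenicillin, 50 μM IPTG and 0.2% rhamnose, and pooled colonies were amplicon-sequenced on an Illumina HiSeq 2500. DiMSum fitness is the error-weighted combination of wild-type-normalised replicate fold changes, kanamycin versus none.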

± gives the uncertainty stated by the source.

Regarding GGCUAGCAAUAUUACGGGAU, the “self-splicing fitness (ln)” value (30 °C) was -1.89 ± 0.089 and the “self-splicing fitness (ln)” value (37 °C) is -1.03 ± 0.11.

For the sequence GAUAAGCAAUAUUACGUACU, the “self-splicing fitness (ln)” value is, setting by setting: (30 °C) -0.466 ± 0.089; (37 °C) -0.373 ± 0.12.

Turning to AGAUAGCAAUAUUACGUAAC, the “self-splicing fitness (ln)” value (30 °C) is -3.68 ± 0.35 and the “self-splicing fitness (ln)” value (37 °C) was -2.01 ± 0.23.

Turning to CCGCAGCAAUAUUACGGAGC, the “self-splicing fitness (ln)” value by setting is: (30 °C) -3.52 ± 0.14; (37 °C) -2.48 ± 0.18.

For GUGGAGCAAUAUUACGUCGC, under “37 °C”, the “self-splicing fitness (ln)” value was -1.71 ± 0.42.

For the sequence GGGCAGCAAUAUUACGAAUG, the “self-splicing fitness (ln)” value (30 °C) was -2.93 ± 0.17 and the “self-splicing fitness (ln)” value (37 °C) was -2.12 ± 0.23.

Turning to AUAUAGCAAUAUUACGUGGU, the “self-splicing fitness (ln)” value reads like this: (30 °C) -2.88 ± 0.19; (37 °C) -1.54 ± 0.29.

As for CGCUAGCAAUAUUACGCAGU, the “self-splicing fitness (ln)” value is -3.63 ± 0.2 (30 °C) and -2.35 ± 0.2 (37 °C).

GUAUAGCAAUAUUACGAGUC: the “self-splicing fitness (ln)” value reads like this: (30 °C) -3.65 ± 0.38; (37 °C) -0.711 ± 0.19.

For GAAUAGCAAUAUUACGGAGA, the “self-splicing fitness (ln)” value was -3.11 ± 0.47 (30 °C) and -2.56 ± 0.45 (37 °C).

On to CCGUAGCAAUAUUACGGUCC, for which the “self-splicing fitness (ln)” value by setting is: (30 °C) -4.14 ± 0.3; (37 °C) -2.93 ± 0.28.

With GAUAAGCAAUAUUACGGAGG, the “self-splicing fitness (ln)” value is, setting by setting: (30 °C) -1.43 ± 0.13; (37 °C) -2.92 ± 0.29.

Consider GUGCAGCAAUAUUACGCGAG, for which the “self-splicing fitness (ln)” value reads like this: (30 °C) -2.55 ± 0.13; (37 °C) -1.7 ± 0.12.

With GGGCAGCAAUAUUACGGUGG, the “self-splicing fitness (ln)” value is -3.42 ± 0.17 (30 °C) and -1.86 ± 0.16 (37 °C).

As to CCACAGCAAUAUUACGUCUG, the “self-splicing fitness (ln)” value (30 °C) is -3.12 ± 0.088 and the “self-splicing fitness (ln)” value (37 °C) was -1.98 ± 0.083.

With ACCAAGCAAUAUUACGUCAC, the “self-splicing fitness (ln)” value runs as follows: (30 °C) -3.68 ± 0.47; (37 °C) -2.89 ± 0.27.

With GCAUAGCAAUAUUACGAAAA, the “self-splicing fitness (ln)” value (37 °C) was found to be 0.492 ± 0.27.

Take UCUCAGCAAUAUUACGGUAU: the “self-splicing fitness (ln)” value (30 °C) is -3.7 ± 0.21 and the “self-splicing fitness (ln)” value (37 °C) was -3.05 ± 0.26.

Regarding UCCAAGCAAUAUUACGAUCG, the “self-splicing fitness (ln)” value runs as follows: (30 °C) -2.65 ± 0.19; (37 °C) -3.06 ± 0.24.

Take AGACAGCAAUAUUACGUCAG: the “self-splicing fitness (ln)” value was -2.3 ± 0.092 (30 °C) and -0.807 ± 0.11 (37 °C).

Turning to CAGGAGCAAUAUUACGUCUG, the “self-splicing fitness (ln)” value (30 °C) is -2.47 ± 0.22.

As for AUUCAGCAAUAUUACGCUGU, the “self-splicing fitness (ln)” value runs as follows: (30 °C) -2.87 ± 0.21; (37 °C) -1.09 ± 0.18.

Regarding GACAAGCAAUAUUACGCGGU, the “self-splicing fitness (ln)” value by setting is: (30 °C) -3.2 ± 0.24; (37 °C) -2.48 ± 0.24.

Turning to UACUAGCAAUAUUACGGACG, the “self-splicing fitness (ln)” value runs as follows: (30 °C) -0.258 ± 0.098; (37 °C) 0.0809 ± 0.12.

As for UAGGAGCAAUAUUACGAUAC, the “self-splicing fitness (ln)” value (30 °C) was -4.56 ± 0.32 and the “self-splicing fitness (ln)” value (37 °C) was -1.86 ± 0.28.

On to GGCUAGCAAUAUUACGGUCA, for which the “self-splicing fitness (ln)” value is -0.918 ± 0.1 (30 °C) and -0.851 ± 0.085 (37 °C).

On to AUGAAGCAAUAUUACGCGGC, for which the “self-splicing fitness (ln)” value is -2.46 ± 0.31 (30 °C) and -2.26 ± 0.29 (37 °C).

With AUCCAGCAAUAUUACGACAA, the “self-splicing fitness (ln)” value runs as follows: (30 °C) -0.977 ± 0.095; (37 °C) -0.337 ± 0.096.

For the sequence CUCUAGCAAUAUUACGAUGC, the “self-splicing fitness (ln)” value runs as follows: (30 °C) -1.49 ± 0.17; (37 °C) -3.25 ± 0.33.

Consider CUAAAGCAAUAUUACGAAGA, for which the “self-splicing fitness (ln)” value (30 °C) is -2.46 ± 0.27 and the “self-splicing fitness (ln)” value (37 °C) was -1.61 ± 0.3.

For the sequence CCCUAGCAAUAUUACGCCAC, the “self-splicing fitness (ln)” value was -2.88 ± 0.27 (30 °C) and -1.6 ± 0.26 (37 °C).

GAACAGCAAUAUUACGAAUA: the “self-splicing fitness (ln)” value is, setting by setting: (30 °C) -1.48 ± 0.098; (37 °C) -0.755 ± 0.11.

Regarding AGUUAGCAAUAUUACGUACG, the “self-splicing fitness (ln)” value (30 °C) is -0.205 ± 0.18 and the “self-splicing fitness (ln)” value (37 °C) worked out at 0.0821 ± 0.19.

Regarding GGCUAGCAAUAUUACGGUGA, the “self-splicing fitness (ln)” value (30 °C) is -0.0349 ± 0.072 and the “self-splicing fitness (ln)” value (37 °C) was found to be 0.281 ± 0.086.
